In general, koff refers to a measure of how fast the partners let go of each other.

The values below come from paper PMC6063412 (2018).

T1: recombinant human PDGF-CC core domain protein (activated PDGF-CC, growth factor domain) (human, UniProt Q9NRA1 230-345)
T1 chain: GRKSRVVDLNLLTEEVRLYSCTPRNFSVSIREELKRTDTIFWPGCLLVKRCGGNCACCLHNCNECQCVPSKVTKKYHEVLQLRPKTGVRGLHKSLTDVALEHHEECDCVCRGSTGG

B1: monoclonal anti-PDGF-CC antibody 6B3 (antibody, V domains shown)
VH: QVQLQQSGVEVARPGASVKLSCKASGYTFRSYGITWVRQRTGQGLEWIGEIYPRSGKTYYNEKFKGKATLTADTSSSTVYMELRSLTSEDSAVYFCAREGYGYDGGYFDYWGQGTTLTVSS
VL: DIVMTQSPSSLAMSVGQKVTMSCKSSQSLLNSRNQKNYLAWYQQKPGQSPKLLVYFASTRESGVPDRFTGSGSGTDFTLTISSVQAEDLAVYYCQQHYSTPLTFGAGTKLELK
B2: monoclonal anti-PDGF-CC antibody 11F5 (antibody, V domains shown)
VH: QVQLQQSGAELARPGASVKLSCKASGYIFISYGISWVKQRTGQGLEWIGEIYPRSGKTYYNEKFKDKAALTADKSSSIAYMELRSLTSEDSAVYFCAREGYGYDGGYFDYWGQGTILTVSS
VL: DIVMTQSPSSLAMSVGQKVAVSCKSSQSLLNSSNQKNYLAWYQQKPGQSPKLLVYFASTRDSGVPDRFTGSGSGTDFTLTISSVQAEDLAVYYCQQHYSTPLTFGAGTKLELK
B3: monoclonal anti-PDGF-CC antibody 19C7 (antibody, V domains shown)
VH: QVQLQQSGVEVARPGASVKLSCKASGYTFRSYGITWVRQRTGQGLEWIGEIYPRSGKTYYNEKFKGKATLTADTSSSTVYMELRSLTSEDSAVYFCAREGYGYDGGYFDYWGQGTTLTVSS
VL: DIVMTQSPSSLAMSVGQKVTMSCKSSQSLLNSRNQKNYLAWYQQKPGQSPKLLVYFASTRESGVPDRFTGSGSGTDFTLTISSVQAEDLAVYYCQQHYSTPLTFGAGTKLELK

In the assay the target is T1, recombinant human PDGF-CC core domain …. The assay can be described thus: SPR.
For B1, the off-rate (koff) was 0.0015 s⁻¹.

As to B2, the koff came to 0.00058 s⁻¹.

For the molecule B3, the koff turned out to be 0.0016 s⁻¹.
